Consider one molecule from patent US20150218240A1 (SAMSUNG ELECTRONICS, published 2015).

For the test, the target named is T1, Cdk6 (Abcam's ab84717, recombinant full length Human Cdk6 (amino acids 1-326) with N-terminal His tag) (human, UniProt Q00534 1-326).
T1 construct: range 1-326; Bought reagent (Abcam ab84717), coated on the ELISA plate at 1 ug/ml; also called CDk6 protein; not shown: N-terminal His tag of the bought protein
Put plainly: ELISA: Cdk6 coated on plate, p16 at 0-10 uM, detected with anti-p16 antibody and HRP secondary, A450. (In an ELISA, binding on a coated surface is turned into a signal by an enzyme label.)

T1 sequence (Q00534 whole entry, the tested form may be a part): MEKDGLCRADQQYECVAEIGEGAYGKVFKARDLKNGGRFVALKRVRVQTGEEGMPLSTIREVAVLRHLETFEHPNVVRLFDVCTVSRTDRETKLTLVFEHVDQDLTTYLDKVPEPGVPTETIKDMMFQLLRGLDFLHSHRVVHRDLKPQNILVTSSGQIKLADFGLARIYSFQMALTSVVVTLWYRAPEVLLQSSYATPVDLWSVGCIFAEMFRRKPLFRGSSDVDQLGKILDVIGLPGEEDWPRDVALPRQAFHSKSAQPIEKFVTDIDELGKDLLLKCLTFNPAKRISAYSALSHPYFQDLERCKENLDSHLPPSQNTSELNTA

B1: human p16 protein variant (SEQ ID NO: 2; W15K, L37D, L65K, C72S, L78S, V106A, L113T) (other)
chain: MEPAAGSSMEPSADKLATAAARGRVEEVRALLEAGADPNAPNSYGRRPIQVMMMGSARVAELLLKHGAEPNSADPATSTRPVHDAAREGFLDTLVVLHRAGARLDARDAWGRTPVDLAEELGHRDVARYLRAAAGGTRGSNHARIDAAEGPSDIPD
notes: also called p16INK4a variant; mt p16
In the case of B1, the binding result is reported as “binds”.
